Legend:
[1] = biological target: the molecule itself; assay: yeast two-hybrid (Matchmaker Gold; growth on -L-T-H medium)
Method: (§1) Protein interaction assays in yeast were performed using the Matchmaker Gold Yeast Two-Hybrid System (Clontech) as described before (Park et al., 2014b). The coding sequences for bait proteins were cloned into the pGBKT7 vector, and the resulting vectors were transformed into the Y2HGold yeast strain. The coding sequences for prey proteins were cloned into the pGADT7 AD vector, and the resulting vectors were transformed into the Y187 yeast strain. After mating the two yeast strains expressing bait and prey proteins, diploid yeast cells were selected and grown on dropout medium without leucine and tryptophan. To assay protein-protein interactions, clones were grown on triple-dropout medium without leucine, tryptophan, and histidine for 3 d at 30° C. To block auto-activation, 3 mM 3-amino-1,2,4-triazole (3-AT) were added or adenine was removed from the triple-dropout medium. All primer sequences used for cloning can be found in Table 2.

[2] = biological target: the molecule itself; assay: yeast two-hybrid, FIG. 5C
Method: as §1

B1: EJ2 (Enhancer-of-Jointless-2, Solyc03g114840) SEP4-homolog MADS-box protein (other)
chain: MGRGRVELKRIENKINRQVTFAKRRNGLLKKAYELSVLCDAEVALIIFSNRGKLYEFCSTSSMVKTIEKYQRCSYATLEANQSVTDTQNNYHEYLRLKARVELLQRSQRNFLGEDLGTLSSKDLEQLENQLESSLKQIRSRKTQFMLDQLADLQQKEQMLAESNRLLRRKLEESVAGFPLRLCWEDGGDHQLMHQQNRLPNTEGFFQPLGLHSSSPHFGYNPVNTDEVNAAATAHNMNGFIHGWML
binding result [1]: no binding

B2: J2 (Jointless-2, Solyc12g038510) SEP4-homolog MADS-box protein (other)
chain: MGRGRVELKRIENKINRQVTFAKRRNGLLKKAYELSILCDAEVALIIFSSRGKLYEFSSASSMMTTLEKYQQCSYASLDPMLPVSDTQMNYNEYVRLKARVELLQRSQRHILGEDLGTLNSKELEQLEHQLDASLKKVRSKKTQSMLDQLADLQEKEQMLEEANKQLKNKLEESAARIPLGLSWGNNGGQTMEYNRLPPQTTAQPFFQPLRLNSSSPQFGYNPNMGANDHEVNAATTAHNINGFIPGWML
binding result [2]: binds
